As usually defined, the IC50 is the midpoint of a concentration-inhibition curve. A low value points to greater potency.

Data on two molecules can be found in paper PMC3830444 (BMC Biochemistry, 2013).

The assay deals with human α-thrombin (human, UniProt P00734 364-622). The assay can be described thus: ELISA. Conditions: both partners purified. (An ELISA detects its analyte on a solid surface through an enzyme-linked reagent.)

Ends that are not written are not given here.

B1: H6HV3_(54-66)G6 synthetic peptide (peptide)
chain: Ac-GDFEPIPEDAYDE
modifications: not fully specified (C-terminus)
As for B1, the 50% inhibitory concentration (IC50) was 1400 nM.

B2: H6HV3_(54-66) synthetic peptide (peptide)
chain: Ac-GDFEPIPEDAYDE
B2 yielded a half-maximal inhibitory concentration (IC50) of 740 nM.
